Measured values published in patent US20240101959A1, “USE OF IL-2R-BETA-GAMMA AGONIST PEPTIDES IN CELL MANUFACTURING” (MEDIKINE, INC., priority 2022, published 2024).
Positions of bridges follow the written chain, without caps; N, C: chain ends. No end group written: not given here.

These binders were tested against T1, hu-IL-2Rβ subunit (human, UniProt P14784 27-240, limits assumed) (assay: phage ELISA competition assay).
T1 construct: also called human interleukin-2 receptor subunit β; CD122
T1 sequence (looked up): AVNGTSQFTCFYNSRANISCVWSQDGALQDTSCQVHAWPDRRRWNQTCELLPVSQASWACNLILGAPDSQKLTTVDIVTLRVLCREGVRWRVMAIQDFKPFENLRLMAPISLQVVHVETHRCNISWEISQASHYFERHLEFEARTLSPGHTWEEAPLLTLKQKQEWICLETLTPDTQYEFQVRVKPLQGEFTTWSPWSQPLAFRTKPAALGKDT

IC50, < 100 µM:
SGKTQMWNPCYVAKVGELCDLV [SEQ ID NO 482], RDWWLPCEFALIGELCDLERSW [SEQ ID NO 478], AYYPCELAQLGELCDLYNI [SEQ ID NO 473], WLPCWLAKLGELCDLEWLPCW [SEQ ID NO 111], WEHEFTWYPCWIAQVGELCDMD [SEQ ID NO 500], MRTTFWYDCYIAQVGELCDF (not fully specified (bridges); cysteine pairing not given here) [SEQ ID NO 479], YRWWYPCDIAQVGELCDLDYLL [SEQ ID NO 496], MFRYYPCWIASIGELCDLEWGV [SEQ ID NO 460], AQVRREWYPCWMAQLGELCDLT (disulfide 10-19 (inferred)) [SEQ ID NO 109], WWPCYLAQIGELCDLV [SEQ ID NO 493], SRVWHPCWLARVGELCDLEVSD [SEQ ID NO 499], RWMFDCLFARVGELCDIRPW [SEQ ID NO 506], QNASKGWYPCWIAHVGELCDWD [SEQ ID NO 465], ERRWYPCWLASVGELCDLDMGD [SEQ ID NO 461], RYVPDCLKAQVGDLCDFFAW [SEQ ID NO 492], FYPCWIAFVGELCDLE [SEQ ID NO 467], NDHTAWWPCYFAQVGDLCDLV [SEQ ID NO 475], AGFRGRWWPCEYAQVGELCDLE [SEQ ID NO 484], SLAHRSWYPCWLAQVGELCDLD [SEQ ID NO 464], RWDYWPCYIAQVGELCDLEVYE [SEQ ID NO 463], WTGWSAFYPCSIANLGELCDLD [SEQ ID NO 469], FGDDFCRFIPLFEMCTTDVE [SEQ ID NO 513], HRGWVGWYPCEYALPGQLCDLE [SEQ ID NO 501], WWPCDFAQIGELCDLGPRFTGE [SEQ ID NO 477], ETEQMSWYPCWVAQLWELCDLD (disulfide 10-19 (inferred)) [SEQ ID NO 110], WYPCWLAQVGELCDRE [SEQ ID NO 488], LVYYDCYMAQVGELCDLPSL [SEQ ID NO 514], EWFHDCFLAKVGDLCDLFLW [SEQ ID NO 481], KWFHDCFLAKVGDLCDLFLW [SEQ ID NO 533], WEKLQNWYPCWIAQMGELCDLE (not fully specified (bridges); cysteine pairing not given here) [SEQ ID NO 470], QITDSGWYPCWVAKVGELCDMD [SEQ ID NO 495], WLNRHLFNPCWMARLGELCDLE [SEQ ID NO 108], WGRNRSWYPCWMAQLGELCDLE [SEQ ID NO 113], WLPCWIAKIGDLCDLD [SEQ ID NO 498], WQIFDCYLAQVGELCDLQDT [SEQ ID NO 511], RGVYFPCWLAKVGDLCDSDEF [SEQ ID NO 489], WWPCEWARIGELCDLE [SEQ ID NO 486], WFPCWLAKVGELCDRDDLAGPS [SEQ ID NO 485], GRYPDCYIAHVGELCEFYDG (not fully specified (bridges); cysteine pairing not given here) [SEQ ID NO 512], WYPCWMAKVGELCDME [SEQ ID NO 494], SWHAETWYPCWLAQVGELCDLD [SEQ ID NO 480], TPWYDCYIANVGDLCDFASA [SEQ ID NO 509], RVRRHSWWPCEIAVVGELCDLE (not fully specified (bridges); cysteine pairing not given here) [SEQ ID NO 503], HRWYPCWLAHLGELCDLDPMS [SEQ ID NO 466], LESLDCFFARIGDLCEIWDV [SEQ ID NO 510], TNGVLDWWPCWMAQVGELCDLD (not fully specified (bridges); cysteine pairing not given here) [SEQ ID NO 471], LPFQDCYIAQVGELCDLPGT [SEQ ID NO 505], DKAGPNFYPCWLAHVGELCDQA [SEQ ID NO 483], WYPCWMALLGELCDQE [SEQ ID NO 81], GGYYDCLIAEVGELCDMPGQ [SEQ ID NO 507], DGWWPCWIAQVGELCDLEDPV (not fully specified (bridges); cysteine pairing not given here) [SEQ ID NO 504], ERRPDTWFPCWRALVGELCDLE [SEQ ID NO 112], KGSSWFPCYFAQVGDLCDLY [SEQ ID NO 487], WWPCEIAQIGELCDLEWVRHAE [SEQ ID NO 476], WYPCWLAKVGELCDQE [SEQ ID NO 491], VVCYACDIAHVGELCDLTCR [SEQ ID NO 508], RAWWWPCELAQVGELCDLEPSS [SEQ ID NO 490], EGHWYPCWIAQLGELCDLDW [SEQ ID NO 468]
